Data: a protein production outcome set (Wang et al. 2014)

Experiment: label from the status in PepcDB records

| Sequence | protein production |
| --- | --- |
| MIDMEQDNRNQINGENISNASAGGTQPEQNTQSSQNMHPEQTGQGTQQDSLYHYSYMNNKGDARFDRPAGETSQQRMGAQTQNMRETANVQGGTQNTAYSGFQRNVNGMEAWYDSQRMNAGYQNPENNVGGYGQGSQSVPHKTETSHKHEKQPKPKKNSGKKSGVGKKVAGVVAAAVVFGLVAGVVFQGVRYGSDKMLNKNSATTEASADATTENNAPQLKQASSDATNTVYDVATVAQKVMPSIVSITGTYVTTYDYWFNSYQQESTGAGSGIIIGKDDQYLYLATNYHVVQNAKSLSVTFVNDKSADATVKGYVENNDIAVVTVKLADISDDTLNEIKEIQVGSSDDLSVGDPCVAIGNALGYGQSVTVGYISALNREISASDETVKVLQTDAAINPGNSGGALVNMQGELIGINTAKYSDTSVEGMGYALPISDIQDIINDLIAGKKVASDGTASGQAYLGISAQTITSQYSQLLNMPEGVYISSVEQGSAAEECGLQSGDIICSLDGEDIADMDTFHDRIVACKPGDKVTIVYYRNNNGNYEKQTTTATLQEKQ | failed |
| MKHTLVITILIIMFSNGATAEEDKRSINESTTNMIAALQQKQWIHGSQDCKNNQDPAIEVFQYDESSYVLRQNKCLSYEAPFIYVLIGKEKILVVDTGATESAEEFPLYQTVQSLNQKHSDNGKTKEREIVVIHSHSHSDHYSADSQFVGQANVTVVAANNTGVNEFFDFEKWPEQQTNFELGGRSITIIPTPGHQEEAISVYDPQTKWLLTGDTFYPGYIYVKTWQDYKNSIARLVEFTNNHSVSAILGSHIEMTNKAGEYYEIGTIYQPNESSLLLTPSDLTALNEKLQQVDEPEKIAMDSLIVEPLGALPKLISSIAKWFIG | failed |
| MFAMLHVIVDTNWLLLAFSALMFDLPRYTFSLLSWSLVGIFRNSRPGDRWVEAAVSVIIPTFNGGSGLAPTIASLRQQTLSPLEIIIVDDGSTDDTRAVANRARQDGLVDMVICHGTRCGRSAAINAAARFASGDLIFTIDADTVLERDAIARLAHAFNDPRVAGACGNIAIRNESASLWTGLQSVEYMMSISAGKSILDVVGAIACLSGACSMYRRDVFARQGGLDVGPGEDLEFSLRLRRLGYRVRFVPDAWAETDGPVAAVGLLRQRARWDRDALRIRSMMYGELSFFHPLERLPDTLQRLDFIVFDLIPTMSLPFYSMYIVILFGPAHAILFIGAIYFLLLWISLFNMALAFVLFSRSPSFFSLGAAFIFPFYQGIYMKCARFVSYSSEILFATSRRDDYVPPRVRRALFADEVGKVVS | failed |
| MSLSNRAGEILIVEDSPTQAEHLKHILEETGYQTEHVRNGREAVRFLSLTRPDLIISDVLMPEMDGYALCRWLKGQPDLRTIPVILLTILSDPRDVVRSLECGADDFITKPCKDVVLASHVKRLLSGVKRTEERYSRESITLAFGNEGHHHHHH | not failed |
| MHTQEALFVRLALDAWNTQSSRTDKLIQSLSNEALAVETAPGRNSGTYLLGHLTAVHDAMLPLLELGDTLYPQLAPVFIQNPDKSGLEKPEINDLRLYWSLVQERLANQFNQLQPADWFNKHAAISREDFLKEPHRNKLSVLINRTNHMAYHLGQLAYLKK | not failed |
| MKPSLRIYRYPPPPSQRTPCALTIGNFDGVHLGHQAILARVRQEARARGLVPAVMTFEPHPREYFATLNRRPELAPTRISGLRDKLQALAAAGIEQVAVERFDARLAEMSANAFIEDLLVAGLQTRWLLVGEDFRYGHKRSGDIDLLREAGLAHGFEVCTLADITDRQGHRISSSEVRTALAVGDLDRAAQLLGQPFHISGHVIHGRKLGRELGFPTMNLRVAPRCATRSGIYVVRVLGLQDRPLPAVASLGVRPTVEDRGRVLLEAHLLDESLDAYGKLVRVEFLHKLRDEEKFADLPSLTAAIAQDAQNARAYFAVHGL | failed |
| MGNLPALSWGPAGPLARTCGTSYGASDAQDLRRHAKIGSVELTLLGTGAPAGLPRPDCPCAACATALGEAARAATALLVDGTVLLDLTPGAAFAAARAGRSLGGVRQVLLSHPHNGPAVEVPAGLPQPARVPDGRELALLTGHRVRAMPMDAPGTGYAVTGPDGQRLLYLPPGGAPAGLDETVQPYDMVAADVVGRPDALARLRAVGALGPTTDVIAVHLDHDVPPGVELRRRLAAAGARAVPDGTTLTVGVYEDVPDVPRRTLVLGGARSGKSVEAERRLESFPDVLYVATGGSRGGDTEWAERVSVHRERRPGSWRTVETCDLVPLLKEDGPPLLIDCLSLWLTDAMDSVNAWDDDEWAGGGERALRGRVEELTAAVRETGRTVVAVSNEVGSGIVPATASGRRYRDELGRLNAAFAAECEHLLLVVAGQAMVLRGG | failed |
| MEVTNGLNLKDTELRLGLPGAQEEQQLELSCVRSNNKRKNNDSTEESAPPPAKTQIVGWPPVRSNRKNNNNKNVSYVKVSMDGAPYLRKIDLKMYKNYPELLKALENMFKFTVGEYSEREGYKGSGFVPTYEDKDGDWMLVGDVPWDMFSSSCQKLRIMKGSEAPTAL | not failed |
| MEDSTATATSSSSTHYFSIFTNYPLISAVTSFTIAQFIKLFTSWYRERRWDLKQLIGSGGMPSSHSATVTALAVAIGLQEGFGGSHFAIALILASVVMYDATGVRLHAGRQAEVLNQIVYELPAEHPLAESRPLRELLGHTPPQVCRHMT | failed |
| MLAGADKVFLYAKPEQIEAFVAAAQSAGVRQVVLLSSVSVVMATSEQNPIARMHRTVELAIERSGLDWTFIRPGMFATNARWWWGESIRGEGVVRLPYPEAQNAPVHEKDMAALAVTALTEPGHSHQAYTVHGSESLTLRRQVEHIGEALGRPIRVETVSVEQAREEFAEKAPSNVAEALLRMWAAADGVPAPVSVIVDRITGRPAHTFAQWAADHADDFR | failed |
| MRGRFFFRSFEATLIGSEFLVSPETPGTRFAKAPSFRSKTEKDLCSAHGAAASGVLPLGLLEELVRSSPRSSQASGPAGSRQPAQRAPGHQVPAAKMLELLVASLSLALAFFALLDGWYLVRVPCAVLRARLLQPRVRDLLAEQRYAGRVLPSDLDLLLHMNNARYLREADVARAAHLTRCGVLGALRDLNAHTVLAASCARYRRSLRLFEPFEVHTRLQGWDDRAFYLEARFVSLRDGFVCALLRFRQHVLGTSPDRVVQHLCKRRVEPPELPEDLKHWISYNETSSQLLRAESGLSDRKDQ | failed |
| MFENTLVVIKGAGDIATGVGRRLFRCGFPLVMTEQLQPTPVRRTVAFAEAVYKGETTVEGVTARLIEDPAHVYSTLREGHIPIIPDPEAHIIRVLNPKVVVDAILAKKNLGTAKSNAPIVIGLGPGFTAGKDVHAVIETNRGHNLGRVILNGSAEPNTGVPGVVNGYGSERVLRSPADGAIVPIREIGDFLLKGDVIAVVEGEPVVAPFDGTLRGLVHEKVTVFKGMKIGDVDPRASREHCYTISDKALAISGGVLEAILSHRHVITE | failed |
| MPPRIEDILPHRGSMLLLAHVDTWDDETLRASAHVDPTAWYADPEGAMPAWFGIELMAQAIAAHVGLLSMREGNPARPGVLLGSRKYEAHAPAFAPAQPLSIAVQEVLRSTEGHGAYACTIAAGGRDLAQAVIKVYQPTDFQAFIEGLEHHHHHH | failed |
| MFNKKKTIASLIVLSSLASQIALTPISALADTHDTNNIALLQNTNENVPYKYTSTLTFPTLTNQTQEDYKLEIKLALPSGMNYTDLQVSVGGEDITNQVGTTSFDNSTNTVTFKFDKVTSWDSLSKAKVKFDWKTSYSGEGGEAKIDSLVATATATSEDKAGNKSTSTGSLKPKDISAPVVKAEETEITYSPGSDVTEEQFLTDIHASVTDNYDSTISLTSNFTSAVNLAVSGDYSVNVQATDKAGNVSNTLNVTVHVSTPAPVAGANITVNHLDSNGNKIAESDTLTGVVNSNYQSESKKITGYTLETTPTNATGTFTDTPQTVDYIYKKDTVTPTPITVNPVEPVKPVNPVVNKPVTVKPANDNTNPSTSNSVEKTTYSSLPTTGDTDQSKSSTIFGALLLLISAPLLLFKKK | failed |
| MKIAIVRLSALGDIIVSAVFLAVIKECLPNAQIEWFVDERFSAILEHSPYIDKLHPIALKSALKTLNPLKIFKLFKSLRAYEYDIIIDMQGLVKSALITQMLKAPKKVGFDYASAREGLSMFFYSQKVSIAYDEPVLKRNFTLLSHALNLPQKEISKEISESLSSRAKAFSYQPSPKIDALNLNKNKPKILFILETSKINKTYPIERFKELALILENFQICLLWHADEYKATTLYHALKHQRDVLLLPKLTLNEVKALLFKMDLIIGGDTGITHLAWALQKPSITLYGNTPMERFKLESPINVSLTGNSNANYHKKDFSIQNIEPKKIKECVLNILKEKE | failed |
| MVTNMVKLRNLRRLYCSSRLLRTIQNGRISSVSSISLSKKYTTKSAKEGEENVERKHEEEKKDTLKSSSVPTSRISRLFHYGSLAAGVGMNAAAKGISEVAKGNSPTWKSLILSDSNIDRITNKFSKMRGVALKIGQLLSFQDEKVLPKELYEILSRVQNSANHMPQRQLEKVMAKELGANWKTKFSKFDKIPMAAASIGQVHAAELPSGQRVVVKIQYPGVKESIDSDLNSLLMLLTASSLLPKGLFLDKTIANARTELKWECDYNREARALQKFEALLKDDPAFEVPHVFPEYTTDNIITATRMEGTEIMKLPKASQETKNFISENIMRLCLEEIATFKYMQTDPNWANFLYNGRTKKIELLDFGASRPFAEDFILKYRKLLTYATLRDRKGAYEMSVQLGYLTGLESQSMKDAHVDSVLTLGEPFRGDVDKSFDFKDQTVSDRIRGNIGLMLNERLCPPPEETYSLHRKFSGIFLLCARMGASVHCAKLFKEIFAYKV | failed |
| MTQRAGIHPSARRPSAFDPPIGCARPAMTDTLSLRPIVGRRRLWELDPHFHCSIVGTCLTMSDLRKLATKTRLSVPADAPDYRLHGVFVRAAGAAGPAEKGIAKLMDKDLERRHTRALAQFRKAADNDALEALWDGAREAGDIPGPYWALMCHPLASRTLLERAFGEVHMLSHLMGAANRADVRRLAEMERETEAVEDRLAEAEARRLREIEIKQGEIGQLRAAIEAERARTRALVRRLEEAGEGGCRDLRIQTLEATMEGLRERLNREAWRADRLQGKLAEAERLLTEVRADRDDLRRRLAEQAEDLRTLEDLALDDDGEAGDRPPLDLGGRTILYVGGRPRTVPSLRKLVEDSNGRFAHHDAGREDGRAHLGEVLSGADIVICPVDCISHDACLKAKRACLKRGTPFVPLSSAGLGAFARCLRETAPLFAPANDGAALAAELEHHHHHH | failed |
| MTVTLKNDYLTVQINEKGAELSSVKANDGIEYIWQADPAVWGRHAPVLFPFVGRLKDDQFQVEDQTYPMGQHGFARDMDFEAVEQDDQHVIMELNSDTETLQKFPFEFKLRLHFTLKDHELIEHYEVVNPDSKKDLLFSIGGHPGFNLNLGDNQIQMEDTHIRIAPKQVYNQIPLKAPYTDPKNPIKFDATTPLDLTHALFKDDAIILDLKGEQITLMTENEVNNHGIAFTVANAPYLGIWSPYPATANFVCLEPWWGIADTVNFNGELKDKLGVNRLAAQETFNQEFSMSFF | failed |
| MPHPATMFLLLTMAVVFLSWICDIYGLKVTLPQSGEDIRVQSLLSPEGIRWWLRNAIKNFTGFAPLGMVIIAMFGLGVAQHSGFIDACIRLGVGNRKEKRKVILWVIVLGLLSNVIGDGGYIILLPIAAMLFQWVGLHPIAGIVTAYVSVACGYSANIVLSTMDPLLAHTTQEAALTLMGYQGNTEPLCNYFFMSASTVVITGIVYWVTQKWLLPNLGKYEGSVKVEAYRPLSRKERRALMVAVVVAGIYVALILWLTFSSYGILRGVNGGLMHSPFIAGILFLLSLGAGFTGMAYGFSSGRYRSDNDVIEGLTQPIKLLGVYFVIAFFAAQMFACFEYSHLDKCLAIMGADLLSSFEPAPLSALILFILFTAFINLIMVSATSKWAFMSFIFIPMFAQMGISPDVTQCAFRIGDSSTNAITPFLFYMPLVLTYMRQYDKQITYGSLLKYTWRYSLCILAAWTLLFIVWYLLKIPMGL | failed |
| MGELIYGEVKKQTKDGFIIDLGDNAEAYLAREEMIAKEILRPKQRMNAILYSVNREGRGAQLLLSRARPEMLMALMKKEIPLEHHHHHH | failed |
